Measured values reported in US20250076311A1 (Chugai, published 2025).
Where a chain is given by its changes, count along the chain named. Numbers in names are those of the source. Blank lines part the entries; values can stand above or below the binder they belong to.

Legend:
[1] = target: T1, cynomolgus monkey FcγRIIa3 extracellular domain with C-terminal His-tag (cynomolgus monkey); assay: SPR (BIACORE), antibody captured, FcgR analyte
T1 construct: also called cyno FcgRIIa3; cynoFcγRIIa3; not shown: His-tag added to the C-terminus
T1 chain: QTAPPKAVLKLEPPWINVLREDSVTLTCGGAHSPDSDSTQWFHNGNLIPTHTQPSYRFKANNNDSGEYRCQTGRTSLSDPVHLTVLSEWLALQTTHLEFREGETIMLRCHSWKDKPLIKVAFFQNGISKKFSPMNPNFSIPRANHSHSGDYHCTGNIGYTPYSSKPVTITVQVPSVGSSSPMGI
Procedure: (§1) The kinetic analysis of interactions between these antibodies and FcγR was carried out using BIACORE® T200 or BIACORE® 4000 (GE Healthcare). HBS-EP+ (GE Healthcare) was used as the running buffer, and the measurement temperature was set to 25° C. […] After the measurement, the antibody captured on the chip was washed off by allowing reaction with 10 mM glycine-HCl, pH1.5 and 25 mM NaOH so that the chip was regenerated and used repeatedly. The sensorgrams obtained as measurement results were analyzed by the 1:1 Langmuir binding model using the BIACORE® Evaluation Software to calculate the binding rate constant ka (L/mol/s) and dissociation rate constant kd (1/s), and the dissociation constant KD (mol/L) was calculated from these values. […] Regarding such interactions, KD values were calculated using the following 1:1 binding model described in BIACORE® T100 Software Handbook BR1006-48 Edition AE.

[2] = target: T2, cynomolgus monkey FcγRIIa1 extracellular domain, His-tagged (cynomolgus monkey); assay: SPR (Biacore), 25C, FcgR bound per antibody captured
T2 construct: also called cyno FcgRIIa1
T2 chain: T1 chain with T95P, A121T, S128A, P133H, N135D
Procedure: (§2) In the next step, cross-reactivity of these substitutions to cynoFcγRs was evaluated.
(§3) The value of the amount of FcγR binding was obtained by dividing the amount of FcγR bound by the amount of each antibody captured.

[3] = target: T3, cynomolgus monkey FcγRIIa2 extracellular domain, His-tagged (cynomolgus monkey); assay: as above
T3 construct: also called cyno FcgRIIa2
T3 chain: T1 chain with I127K, K130N, P133H, R142Q
Procedure: as §2, §3

[4] = target: T4, cynomolgus monkey FcγRIIa3 extracellular domain, His-tagged (cynomolgus monkey); assay: as above
T4 construct: also called cyno FcgRIIa3
T4 chain: T1 chain
Procedure: as §2, §3

[5] = target: T5, cynomolgus monkey FcγRIIb extracellular domain, His-tagged (cynomolgus monkey); assay: as above
T5 construct: also called cyno FcgRIIb
T5 chain: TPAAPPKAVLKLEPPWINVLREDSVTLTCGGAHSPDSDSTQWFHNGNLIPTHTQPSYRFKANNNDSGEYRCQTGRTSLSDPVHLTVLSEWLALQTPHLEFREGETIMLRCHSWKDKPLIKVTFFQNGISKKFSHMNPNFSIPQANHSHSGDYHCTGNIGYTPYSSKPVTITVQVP
Procedure: as §2, §3

[6] = target: T6, cynomolgus monkey FcγRIIIaS extracellular domain, His-tagged (cynomolgus monkey, UniProt Q8SPW2 21-206 at identity 1.00)); assay: as above
T6 construct: also called cyno FcgRIIIaS
T6 chain: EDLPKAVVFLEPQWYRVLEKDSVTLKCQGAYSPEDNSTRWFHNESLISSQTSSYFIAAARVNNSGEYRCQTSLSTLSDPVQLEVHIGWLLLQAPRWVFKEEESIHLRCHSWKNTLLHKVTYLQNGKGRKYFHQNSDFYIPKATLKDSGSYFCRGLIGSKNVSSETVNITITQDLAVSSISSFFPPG
Procedure: as §2, §3

[7] = target: T7, cynomolgus monkey FcγRIIIaS extracellular domain with C-terminal His-tag (cynomolgus monkey, UniProt A3RFZ7 21-206 (rhesus entry)); assay: SPR Biacore, antibody captured, FcgR analyte
T7 construct: also called cyno FcgRIIIaS; cynoFcγRIIIaS; not shown: His-tag added to C-terminus
Procedure: as §1

[8] = target: T8, human FcγRIIb extracellular domain with C-terminal His-tag (human, UniProt P31994 43-217); assay: SPR Biacore, antibody captured, FcgR analyte
T8 construct: also called human FcgRIIb; not shown: His-tag added to C-terminus
T8 sequence: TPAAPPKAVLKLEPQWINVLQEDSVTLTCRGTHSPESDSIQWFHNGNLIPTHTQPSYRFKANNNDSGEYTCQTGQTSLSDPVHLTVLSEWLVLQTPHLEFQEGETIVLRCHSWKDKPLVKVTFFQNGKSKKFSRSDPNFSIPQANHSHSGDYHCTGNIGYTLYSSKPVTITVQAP
Procedure: as §1

Binding to cynoFcgRs (SG1 = 100) [2]: 18
Binding to cynoFcgRs (SG1 = 100) [3]: 17
Binding to cynoFcgRs (SG1 = 100) [4]: 30
Binding to cynoFcgRs (SG1 = 100) [5]: 30
Binding to cynoFcgRs (SG1 = 100) [6]: 7
B6: M103205H795-SG165 / M103202L889-SK1 (antibody, human IgG1, kappa, name in EU numbering)
heavy: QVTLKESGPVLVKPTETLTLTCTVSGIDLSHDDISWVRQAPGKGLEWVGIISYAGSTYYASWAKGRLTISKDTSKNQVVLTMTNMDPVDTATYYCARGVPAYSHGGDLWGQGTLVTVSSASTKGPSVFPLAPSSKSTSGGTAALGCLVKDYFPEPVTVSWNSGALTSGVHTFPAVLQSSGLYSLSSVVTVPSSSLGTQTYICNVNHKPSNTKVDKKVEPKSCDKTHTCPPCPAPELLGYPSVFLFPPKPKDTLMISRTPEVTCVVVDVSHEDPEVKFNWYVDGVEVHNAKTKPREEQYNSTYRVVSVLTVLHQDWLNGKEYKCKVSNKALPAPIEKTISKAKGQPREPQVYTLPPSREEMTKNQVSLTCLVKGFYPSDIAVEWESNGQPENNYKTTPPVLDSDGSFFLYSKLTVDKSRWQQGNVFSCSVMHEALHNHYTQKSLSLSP
light: DIVMTQSPATLSLSPGERATLSCTSSQSVYHANWLSWFQQKPGQPPKLLIYWASTLAYGVPSRFSGSGSGTDFTLTISSLQPEDAATYYCAGGYGGGRYAFGQGTKVEIKRTVAAPSVFIFPPSDEQLKSGTASVVCLLNNFYPREAKVQWKVDNALQSGNSQESVTEQDSKDSTYSLSSTLTLSKADYEKHKVYACEVTHQGLSSPVTKSFNRGEC
notes: also called G237Y

Binding to cynoFcgRs (SG1 = 100) [2]: 17
Binding to cynoFcgRs (SG1 = 100) [3]: 20
Binding to cynoFcgRs (SG1 = 100) [4]: 18
Binding to cynoFcgRs (SG1 = 100) [5]: 20
B8: M103205H795-SG171 / M103202L889-SK1 (antibody, human IgG1, kappa, name in EU numbering)
heavy: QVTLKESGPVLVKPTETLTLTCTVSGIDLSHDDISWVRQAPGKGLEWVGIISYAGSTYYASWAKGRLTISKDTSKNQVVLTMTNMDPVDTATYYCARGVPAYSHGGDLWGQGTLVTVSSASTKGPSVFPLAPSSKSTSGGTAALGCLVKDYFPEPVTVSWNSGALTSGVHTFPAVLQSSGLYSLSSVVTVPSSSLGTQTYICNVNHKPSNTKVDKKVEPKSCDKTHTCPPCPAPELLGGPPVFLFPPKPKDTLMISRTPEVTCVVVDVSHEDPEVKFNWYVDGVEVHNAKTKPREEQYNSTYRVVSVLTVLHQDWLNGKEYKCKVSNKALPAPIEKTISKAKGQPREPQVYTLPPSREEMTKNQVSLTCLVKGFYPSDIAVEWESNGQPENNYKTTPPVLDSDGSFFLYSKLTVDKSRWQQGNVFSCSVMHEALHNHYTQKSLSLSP
light: B6 light
notes: also called S239P

Binding to cynoFcgRs (SG1 = 100) [2]: 21
Binding to cynoFcgRs (SG1 = 100) [3]: 16
Binding to cynoFcgRs (SG1 = 100) [4]: 30
Binding to cynoFcgRs (SG1 = 100) [5]: 28
Binding to cynoFcgRs (SG1 = 100) [6]: 13
B9: M103205H795-SG168 / M103202L889-SK1 (antibody, human IgG1, kappa, name in EU numbering)
heavy: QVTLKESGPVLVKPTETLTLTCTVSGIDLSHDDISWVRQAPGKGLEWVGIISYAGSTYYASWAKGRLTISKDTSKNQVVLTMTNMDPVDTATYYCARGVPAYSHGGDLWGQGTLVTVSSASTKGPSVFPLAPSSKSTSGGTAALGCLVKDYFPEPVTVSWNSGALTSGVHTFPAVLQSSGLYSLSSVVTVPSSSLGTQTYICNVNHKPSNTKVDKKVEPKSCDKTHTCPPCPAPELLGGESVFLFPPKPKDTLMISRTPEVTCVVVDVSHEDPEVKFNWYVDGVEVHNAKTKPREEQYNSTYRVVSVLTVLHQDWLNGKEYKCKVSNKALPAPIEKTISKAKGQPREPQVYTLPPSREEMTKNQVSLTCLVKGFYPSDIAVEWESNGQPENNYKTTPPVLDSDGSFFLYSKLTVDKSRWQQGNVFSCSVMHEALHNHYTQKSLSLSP
light: B6 light
notes: also called P238E

The remaining lines, values behind:

B1: M103205H795-MY201/M103202L889-SK1 (antibody, human IgG1, kappa)
heavy: QVTLKESGPVLVKPTETLTLTCTVSGIDLSHDDISWVRQAPGKGLEWVGIISYAGSTYYASWAKGRLTISKDTSKNQVVLTMTNMDPVDTATYYCARGVPAYSHGGDLWGQGTLVTVSSASTKGPSVFPLAPSSKSTSGGTAALGCLVKDYFPEPVTVSWNSGALTSGVHTFPAVLQSSGLYSLSSVVTVPSSSLGTQTYICNVNHKPSNTKVDKKVEPKSCDKTHTCPPCPAPELLNGPSVFLFPPKPKDTLMISRTPEVTCVVVDVSDEDPEVKFNWYVDGVEVHNAKTKPREEQYNSTYRVVSVLTVLHQDWLNGKEYKCKVSNKALPKPIEKTISKAKGQPREPQVYTLPPSREEMTKNQVSLTCLVKGFYPSDIAVEWESNGQPENNYKTTPPVLDSDGSFFLYSKLTVDKSRWQQGNVFSCSVMHEALHNHYTQKSLSLSP
light: B6 light
notes: Fc variant of MS1032LO06-SG1; also called MS1032LO06-MY201
Kd [1]: 5.9 µM

B2: M103205H795-MY001 / M103202L889-SK1 (antibody, human IgG1, kappa, name in EU numbering)
heavy: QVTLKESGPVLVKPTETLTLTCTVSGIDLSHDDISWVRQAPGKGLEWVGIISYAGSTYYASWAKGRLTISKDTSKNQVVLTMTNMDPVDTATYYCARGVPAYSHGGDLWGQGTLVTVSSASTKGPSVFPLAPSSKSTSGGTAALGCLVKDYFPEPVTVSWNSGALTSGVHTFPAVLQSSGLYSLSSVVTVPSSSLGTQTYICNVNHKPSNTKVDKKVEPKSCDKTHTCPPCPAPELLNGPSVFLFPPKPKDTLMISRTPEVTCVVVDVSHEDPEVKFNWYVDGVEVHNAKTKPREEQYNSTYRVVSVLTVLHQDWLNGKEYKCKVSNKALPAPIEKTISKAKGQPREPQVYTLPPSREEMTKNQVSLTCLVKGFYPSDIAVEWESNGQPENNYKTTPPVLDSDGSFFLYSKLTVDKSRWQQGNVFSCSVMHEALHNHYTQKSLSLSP
light: B6 light
notes: also called G236N
Binding to cynoFcgRs (SG1 = 100) [2]: 83
Binding to cynoFcgRs (SG1 = 100) [3]: 86
Binding to cynoFcgRs (SG1 = 100) [4]: 62
Binding to cynoFcgRs (SG1 = 100) [5]: 85
Binding to cynoFcgRs (SG1 = 100) [6]: 15

B3: M103205H795-MY205/M103202L889-SK1 (antibody, human IgG1, kappa)
heavy: B1 heavy with Q297L
light: B6 light
notes: also called MS1032LO06-MY205
KD fold (SG1 = 1) [7]: 0.08 fold
KD fold (SG1 = 1) [8]: 8.7 fold

B4: M103205H795-SG177 / M103202L889-SK1 (antibody, human IgG1, kappa, name in EU numbering)
heavy: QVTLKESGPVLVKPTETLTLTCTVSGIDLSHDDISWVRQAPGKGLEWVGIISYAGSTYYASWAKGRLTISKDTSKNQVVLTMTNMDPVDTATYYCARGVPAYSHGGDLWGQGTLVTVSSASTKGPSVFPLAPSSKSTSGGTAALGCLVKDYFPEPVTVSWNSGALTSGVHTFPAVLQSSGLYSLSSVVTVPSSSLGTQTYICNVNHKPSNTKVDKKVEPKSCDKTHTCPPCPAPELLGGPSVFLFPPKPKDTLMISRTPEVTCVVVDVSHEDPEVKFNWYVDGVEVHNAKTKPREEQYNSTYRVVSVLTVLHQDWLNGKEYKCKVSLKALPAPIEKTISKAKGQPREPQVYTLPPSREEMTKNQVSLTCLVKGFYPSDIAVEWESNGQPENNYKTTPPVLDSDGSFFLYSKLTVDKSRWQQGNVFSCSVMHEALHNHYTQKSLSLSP
light: B6 light
notes: also called N325L
Binding to cynoFcgRs (SG1 = 100) [2]: 15
Binding to cynoFcgRs (SG1 = 100) [3]: 15
Binding to cynoFcgRs (SG1 = 100) [4]: 25
Binding to cynoFcgRs (SG1 = 100) [5]: 18
Binding to cynoFcgRs (SG1 = 100) [6]: 21

B5: M103205H795-MY201/M103202L889-SK1 (antibody, human IgG1, kappa)
heavy: B1 heavy
light: B6 light
notes: also called MS1032LO06-MY201
KD fold (SG1 = 1) [8]: 4.7 fold

B7: M103205H795-SG174 / M103202L889-SK1 (antibody, human IgG1, kappa, name in EU numbering)
heavy: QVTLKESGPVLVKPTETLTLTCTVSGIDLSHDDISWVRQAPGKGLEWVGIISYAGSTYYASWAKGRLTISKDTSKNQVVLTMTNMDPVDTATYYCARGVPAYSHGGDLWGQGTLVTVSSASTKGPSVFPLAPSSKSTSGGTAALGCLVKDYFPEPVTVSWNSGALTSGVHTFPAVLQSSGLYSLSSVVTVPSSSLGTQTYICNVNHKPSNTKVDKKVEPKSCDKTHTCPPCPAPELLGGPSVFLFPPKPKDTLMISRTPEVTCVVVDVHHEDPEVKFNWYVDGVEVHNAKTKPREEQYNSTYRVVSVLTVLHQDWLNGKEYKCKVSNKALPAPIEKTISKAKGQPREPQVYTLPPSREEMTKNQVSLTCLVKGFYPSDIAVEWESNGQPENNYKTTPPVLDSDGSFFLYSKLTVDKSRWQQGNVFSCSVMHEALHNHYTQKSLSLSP
light: B6 light
notes: also called S267H
Binding to cynoFcgRs (SG1 = 100) [2]: 13
Binding to cynoFcgRs (SG1 = 100) [3]: 16
Binding to cynoFcgRs (SG1 = 100) [4]: 20
Binding to cynoFcgRs (SG1 = 100) [5]: 11
Binding to cynoFcgRs (SG1 = 100) [6]: 15
